The source of these data is patent publication US20200024322A1 (Eli Lilly, published 2020).

Substitutions are numbered along the chain they refer to. Numbered stars: 1 amine (or outer) side, 2 acyl side, 3 side chain; on linkers, the order of the positions; unused ones are H or OH. Square brackets hold non-standard residues; d marks the D form. Side chains are listed from the residue outwards. Ends that are not written are not given here. * marks the point of attachment. C20 diacid = O=C(O)CCCCCCCCCCCCCCCCCCC(=O)*; αMePhe(2-F) = C[C@](N)(Cc1ccccc1F)C(=O)O; γGlu = O=C(O)[C@H](CCC(=O)[*:2])N[*:1]; Desaminohistidyl = O=C(CCc1c[nH]cn1)*; αMeF = C[C@](N)(Cc1ccccc1)C(=O)O; αMeL = CC(C)C[C@](C)(N)C(=O)O; cTA = not defined here; AEEA = NCCOCCOCC(=O)O; Aib = CC(C)(N)C(=O)O

To fix the notation:
T1: human GIP receptor (human, UniProt P48546 22-466)
T1 construct: whole, on cells; Used as crude membranes of stably transfected CHO cells; also called hGIPR
T1 sequence (looked up): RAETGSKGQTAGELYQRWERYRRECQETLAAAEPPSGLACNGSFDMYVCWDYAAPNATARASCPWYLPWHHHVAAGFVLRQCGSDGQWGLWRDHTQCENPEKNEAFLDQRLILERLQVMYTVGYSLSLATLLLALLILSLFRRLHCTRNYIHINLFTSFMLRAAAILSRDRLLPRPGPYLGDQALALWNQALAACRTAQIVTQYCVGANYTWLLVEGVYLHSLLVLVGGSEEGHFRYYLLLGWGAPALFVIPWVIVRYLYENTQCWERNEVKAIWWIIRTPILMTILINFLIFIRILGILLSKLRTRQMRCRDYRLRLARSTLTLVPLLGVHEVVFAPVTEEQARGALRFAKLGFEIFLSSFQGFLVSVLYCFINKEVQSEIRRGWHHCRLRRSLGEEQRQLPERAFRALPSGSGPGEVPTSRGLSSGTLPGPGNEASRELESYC

B1: Example 100 (peptide)
peptide: YXEGTXTSDYSIXLDEKAQXAFIEYLIEGG
modifications: Aib2; αMeF6; αMeL13; K17((2-[2-(2-Amino-ethoxy)-ethoxy]-acetyl)2-(γ-Glu)-CO-(CH2)18-CO2H); Aib20; C-terminal NH2
B2: Example 104 (peptide)
peptide: B1 peptide with A21E
modifications: Aib2; αMeF(2F)6; αMeL13; K17((2-[2-(2-Amino-ethoxy)-ethoxy]-acetyl)2-(γ-Glu)-CO-(CH2)16-CO2H); Aib20; C-terminal NH2
B3: Example 103 (peptide)
peptide: B1 peptide with A21E
modifications: Aib2; αMeF(2F)6; αMeL13; K17((2-[2-(2-Amino-ethoxy)-ethoxy]-acetyl)2-(γ-Glu)-CO-(CH2)18-CO2H); Aib20; C-terminal NH2
B4: Example 99 (peptide)
peptide: B1 peptide with E16K
modifications: Aib2; αMeF6; αMeL13; K17((2-[2-(2-Amino-ethoxy)-ethoxy]-acetyl)2-(γ-Glu)-CO-(CH2)18-CO2H); Aib20; C-terminal NH2
B5: Example 107 (peptide)
peptide: XXEGTFTSDYSILLDKKAQXAFIEYLIEGGPSSGAPPPS
modifications: DesTyr1; Aib2; K17((2-[2-(2-Amino-ethoxy)-ethoxy]-acetyl)2-(γ-Glu)-CO-(CH2)18-CO2H); Aib20; C-terminal NH2
B6: Example 101 (peptide)
peptide: Y[Aib]EGT[αMePhe(2-F)]TSDYSI[Aib]LDEK([AEEA-AEEA-γGlu-C20 diacid])AQ[Aib]AFIEYLIEGG-NH2
modifications: N-terminus assumed
SMILES: CC[C@H](C)[C@H](NC(=O)[C@H](CC(C)C)NC(=O)[C@H](Cc1ccc(O)cc1)NC(=O)[C@H](CCC(=O)O)NC(=O)[C@@H](NC(=O)[C@H](Cc1ccccc1)NC(=O)[C@H](C)NC(=O)C(C)(C)NC(=O)[C@H](CCC(N)=O)NC(=O)[C@H](C)NC(=O)[C@H](CCCCNC(=O)COCCOCCNC(=O)COCCOCCNC(=O)CC[C@H](NC(=O)CCCCCCCCCCCCCCCCCCC(=O)O)C(=O)O)NC(=O)[C@H](CCC(=O)O)NC(=O)[C@H](CC(=O)O)NC(=O)[C@H](CC(C)C)NC(=O)C(C)(C)NC(=O)[C@@H](NC(=O)[C@H](CO)NC(=O)[C@H](Cc1ccc(O)cc1)NC(=O)[C@H](CC(=O)O)NC(=O)[C@H](CO)NC(=O)[C@@H](NC(=O)[C@](C)(Cc1ccccc1F)NC(=O)[C@@H](NC(=O)CNC(=O)[C@H](CCC(=O)O)NC(=O)C(C)(C)NC(=O)[C@@H](N)Cc1ccc(O)cc1)[C@@H](C)O)[C@@H](C)O)[C@@H](C)CC)[C@@H](C)CC)C(=O)N[C@@H](CCC(=O)O)C(=O)NCC(=O)NCC(N)=O
B7: Example 93 (peptide)
peptide: Y[Aib]EGT[αMeF]TSDYSILK([AEEA-AEEA-γGlu-C20 diacid])DKIAQ[Aib]AFIEYLIEGG-NH2
modifications: N-terminus assumed
SMILES: CC[C@H](C)[C@H](NC(=O)[C@H](CCCCN)NC(=O)[C@H](CC(=O)O)NC(=O)[C@H](CCCCNC(=O)COCCOCCNC(=O)COCCOCCNC(=O)CC[C@H](NC(=O)CCCCCCCCCCCCCCCCCCC(=O)O)C(=O)O)NC(=O)[C@H](CC(C)C)NC(=O)[C@@H](NC(=O)[C@H](CO)NC(=O)[C@H](Cc1ccc(O)cc1)NC(=O)[C@H](CC(=O)O)NC(=O)[C@H](CO)NC(=O)[C@@H](NC(=O)[C@](C)(Cc1ccccc1)NC(=O)[C@@H](NC(=O)CNC(=O)[C@H](CCC(=O)O)NC(=O)C(C)(C)NC(=O)[C@@H](N)Cc1ccc(O)cc1)[C@@H](C)O)[C@@H](C)O)[C@@H](C)CC)C(=O)N[C@@H](C)C(=O)N[C@@H](CCC(N)=O)C(=O)NC(C)(C)C(=O)N[C@@H](C)C(=O)N[C@@H](Cc1ccccc1)C(=O)N[C@H](C(=O)N[C@@H](CCC(=O)O)C(=O)N[C@@H](Cc1ccc(O)cc1)C(=O)N[C@@H](CC(C)C)C(=O)N[C@H](C(=O)N[C@@H](CCC(=O)O)C(=O)NCC(=O)NCC(N)=O)[C@@H](C)CC)[C@@H](C)CC
B8: Example 117 (peptide)
peptide: Y[Aib]EGT[αMeF]TSDYSI[Aib]LDEK([AEEA-AEEA-γGlu-C20 diacid])AQ[Aib]AFIEYLIEGGPSSGAPPPS-NH2
modifications: N-terminus assumed
SMILES: CC[C@H](C)[C@H](NC(=O)[C@H](CC(C)C)NC(=O)[C@H](Cc1ccc(O)cc1)NC(=O)[C@H](CCC(=O)O)NC(=O)[C@@H](NC(=O)[C@H](Cc1ccccc1)NC(=O)[C@H](C)NC(=O)C(C)(C)NC(=O)[C@H](CCC(N)=O)NC(=O)[C@H](C)NC(=O)[C@H](CCCCNC(=O)COCCOCCNC(=O)COCCOCCNC(=O)CC[C@H](NC(=O)CCCCCCCCCCCCCCCCCCC(=O)O)C(=O)O)NC(=O)[C@H](CCC(=O)O)NC(=O)[C@H](CC(=O)O)NC(=O)[C@H](CC(C)C)NC(=O)C(C)(C)NC(=O)[C@@H](NC(=O)[C@H](CO)NC(=O)[C@H](Cc1ccc(O)cc1)NC(=O)[C@H](CC(=O)O)NC(=O)[C@H](CO)NC(=O)[C@@H](NC(=O)[C@](C)(Cc1ccccc1)NC(=O)[C@@H](NC(=O)CNC(=O)[C@H](CCC(=O)O)NC(=O)C(C)(C)NC(=O)[C@@H](N)Cc1ccc(O)cc1)[C@@H](C)O)[C@@H](C)O)[C@@H](C)CC)[C@@H](C)CC)C(=O)N[C@@H](CCC(=O)O)C(=O)NCC(=O)NCC(=O)N1CCC[C@H]1C(=O)N[C@@H](CO)C(=O)N[C@@H](CO)C(=O)NCC(=O)N[C@@H](C)C(=O)N1CCC[C@H]1C(=O)N1CCC[C@H]1C(=O)N1CCC[C@H]1C(=O)N[C@@H](CO)C(N)=O
B9: Example 106 (peptide)
peptide: [Desaminohistidyl][Aib]EGTFTSDYSILLDKK([AEEA-AEEA-γGlu-C20 diacid])AQ[Aib]AFIEYLIEGGPSSGAPPPS-NH2
SMILES: CC[C@H](C)[C@H](NC(=O)[C@H](CC(C)C)NC(=O)[C@H](Cc1ccc(O)cc1)NC(=O)[C@H](CCC(=O)O)NC(=O)[C@@H](NC(=O)[C@H](Cc1ccccc1)NC(=O)[C@H](C)NC(=O)C(C)(C)NC(=O)[C@H](CCC(N)=O)NC(=O)[C@H](C)NC(=O)[C@H](CCCCNC(=O)COCCOCCNC(=O)COCCOCCNC(=O)CC[C@H](NC(=O)CCCCCCCCCCCCCCCCCCC(=O)O)C(=O)O)NC(=O)[C@H](CCCCN)NC(=O)[C@H](CC(=O)O)NC(=O)[C@H](CC(C)C)NC(=O)[C@H](CC(C)C)NC(=O)[C@@H](NC(=O)[C@H](CO)NC(=O)[C@H](Cc1ccc(O)cc1)NC(=O)[C@H](CC(=O)O)NC(=O)[C@H](CO)NC(=O)[C@@H](NC(=O)[C@H](Cc1ccccc1)NC(=O)[C@@H](NC(=O)CNC(=O)[C@H](CCC(=O)O)NC(=O)C(C)(C)NC(=O)CCc1c[nH]cn1)[C@@H](C)O)[C@@H](C)O)[C@@H](C)CC)[C@@H](C)CC)C(=O)N[C@@H](CCC(=O)O)C(=O)NCC(=O)NCC(=O)N1CCC[C@H]1C(=O)N[C@@H](CO)C(=O)N[C@@H](CO)C(=O)NCC(=O)N[C@@H](C)C(=O)N1CCC[C@H]1C(=O)N1CCC[C@H]1C(=O)N1CCC[C@H]1C(=O)N[C@@H](CO)C(N)=O

T3 sequence (P47871 26-477): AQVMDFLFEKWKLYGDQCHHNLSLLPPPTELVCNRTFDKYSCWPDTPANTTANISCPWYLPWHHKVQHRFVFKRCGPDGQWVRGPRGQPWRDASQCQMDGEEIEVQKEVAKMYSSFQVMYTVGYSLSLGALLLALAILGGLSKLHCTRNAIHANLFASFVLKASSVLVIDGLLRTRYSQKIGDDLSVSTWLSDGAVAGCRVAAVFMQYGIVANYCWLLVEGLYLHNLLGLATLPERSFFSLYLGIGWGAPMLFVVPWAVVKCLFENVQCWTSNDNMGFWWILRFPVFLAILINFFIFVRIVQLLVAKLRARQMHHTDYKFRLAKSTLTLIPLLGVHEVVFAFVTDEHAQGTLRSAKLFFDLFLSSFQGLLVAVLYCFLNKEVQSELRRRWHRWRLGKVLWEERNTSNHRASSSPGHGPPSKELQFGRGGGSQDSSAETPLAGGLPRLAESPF

One test addresses T1, human GIP receptor. The experiment in a line: SPA, [125I]-GIP displacement, hGIPR membranes.
Take B1: affinity was put at a Ki of 0.115 nM.

Consider B2, for which the affinity corresponds to a Ki of 0.0565 nM.

In the case of B3, the Ki (usually a dissociation constant, usually derived from enzyme kinetics or from competition with a known ligand) was 0.0645 nM.

In the case of B4, the Ki was 0.027 nM.

On to B5, for which the affinity corresponds to a Ki of 0.0425 nM.

In the case of Y[Aib][cTA]GT[αMeF]TSDYSI[αMeL]LDEK([AEEA-AEEA-γGlu-C20 diacid])AQ[Aib]AFIEYLIEGGPSSGAPPPS-NH2 (reading uncertain) [Example 120], the Ki came out at 0.11 nM.

The molecule B6 returned a Ki of 0.0953 nM.

In turn, B7 had a Ki of 0.0859 nM.

[Desaminohistidyl][Aib]EGTFTSDYSILLDKK([AEEA-AEEA-γGlu-C20 diacid])AQ[Aib]AFIEYLIEGGPSSGAPPPS-NH2 (also: reversed amide ψ[NHCO] between residues 1 and 2) [Example 105] came in with a Ki of 0.119 nM.

Molecule B8 returned a Ki of 0.0497 nM.

Molecule B9 displayed a Ki of 0.179 nM.

For another test, the target named is T2, human GLP-1 receptor (human, UniProt P43220 24-463).
T2 construct: whole, on cells; Used as crude membranes of stably transfected HEK293 cells; also called hGLP1R; hGLP-1R
The experiment in a line: SPA, [125I]-GLP-1 displacement, hGLP-1R membranes.
B1 came in with a Ki of 4.13 nM.

The molecule B2 displayed a Ki of 3.91 nM.

On to B3, for which the affinity, expressed as Ki, was 6.68 nM.

Molecule B4 returned an inhibition constant (Ki) of 1.15 nM.

Molecule B5 came in with a Ki of 0.867 nM.

Take Y[Aib][cTA]GT[αMeF]TSDYSI[αMeL]LDEK([AEEA-AEEA-γGlu-C20 diacid])AQ[Aib]AFIEYLIEGGPSSGAPPPS-NH2 (reading uncertain) [Example 120]: the Ki is 11.7 nM.

Turning to B6, the affinity corresponds to a Ki of 8.1 nM.

Regarding B7, the Ki worked out at 1.89 nM.

Regarding [Desaminohistidyl][Aib]EGTFTSDYSILLDKK([AEEA-AEEA-γGlu-C20 diacid])AQ[Aib]AFIEYLIEGGPSSGAPPPS-NH2 (also: reversed amide ψ[NHCO] between residues 1 and 2) [Example 105], the inhibitory constant (Ki) worked out at 0.871 nM.

Regarding B8, the Ki turned out to be 6.96 nM.

Regarding B9, the inhibition constant (Ki) is 1.2 nM.

A further test addresses T3, human glucagon receptor (human, UniProt P47871 26-477).
T3 construct: whole, on cells; Used as crude membranes of stably transfected HEK293 cells; also called hGcgR; hGLcgR
Put plainly: SPA, [125I]-Gcg displacement, hGcgR membranes.
The molecule B1 gave a Ki of 44 nM.

For B2, the affinity, expressed as Ki, was 123 nM.

For B3, the Ki was 40.3 nM.

For B4, the Ki was 23.6 nM.

In turn, B5 gave an inhibition constant (Ki) of 303 nM.

Molecule Y[Aib][cTA]GT[αMeF]TSDYSI[αMeL]LDEK([AEEA-AEEA-γGlu-C20 diacid])AQ[Aib]AFIEYLIEGGPSSGAPPPS-NH2 (reading uncertain) [Example 120] yielded an inhibitory constant (Ki) of 93.6 nM.

For the molecule B6, the affinity, expressed as Ki, was 117 nM.

The molecule B7 showed an inhibition constant (Ki) of 15.7 nM.

The molecule [Desaminohistidyl][Aib]EGTFTSDYSILLDKK([AEEA-AEEA-γGlu-C20 diacid])AQ[Aib]AFIEYLIEGGPSSGAPPPS-NH2 (also: reversed amide ψ[NHCO] between residues 1 and 2) [Example 105] returned a Ki of 20.4 nM.

For the molecule B8, the affinity corresponds to a Ki of 192 nM.

B9 had a Ki of 515 nM.
